Like-named read-outs stand apart in the source and are kept apart here.
T1: peptide KPGQPMY
T1 chain: KPGQPMY

T2: peptide TPAAAR
T2 chain: TPAAAR

T3: peptide WHWLQLKPGQPMY
T3 chain: WHWLQLKPGQPMY

B1: TRI035, PepN 2 (aminopeptidase type 2) from Aspergillus clavatus NRRL 1 (protein)
chain: NAPGGPGGHGRKLPVNPKTFPNEIRLKDLLHGSQKLEDFAYAYPERNRVFGGQAHLDTVNYLYRELKKTGYYDVYKQPQVHQWTRADQSLTLGGDSIQASTMTYSPSVNVTAPLSLVSKLGCAEGDYSADVKGKIALVSRGECSFAQKSVLSAKAGAVATIVYNNVDGSLAGTLGGATSELGPYSPIIGITLAAGQDLVARLQAAPTEVSLWIDSKVENRTTYNVIAQTKGGDPNNVVALGGHTDSVENGPGINDDGSGVISNLVVAKALTRYSVKNAVRFCFWTAEEFGLLGSNYYVDNLSPAELAKIRLYLNFDMIASPNYALMIYDGDGSAFNLTGPPGSAQIESLFENYYKSIKQGFVPTAFDGRSDYEGFILKGIPAGGVFTGAESLKTEEQARLFGGQAGVALDANYHAKGDNMTNLNHKAFLINSRATAFAVATYANNLSSIPPRNATVVKRESMKWTKREEPHTHGADTGCFASRVKE
B2: TRI063, leucine aminopeptidase 2 from Aspergillus oryzae RIB40 (NCBI Reference Sequence XP_001819545.1) (protein)
chain: RALVSPDEFPEDIQLEDLLEGSQQLEDFAYAYPERNRVFGGKAHDDTVNYLYEELKKTGYYDVYKQPQVHLWSNADQTLKVGDEEIEAKTMTYSPSVEVTADVAVVKNLGCSEADYPSDVEGKVALIKRGECPFGDKSVLAAKAKAAASIVYNNVAGSMAGTLGAAQSDKGPYSAIVGISLEDGQKLIKLAEAGSVSVDLWVDSKQENRTTYNVVAQTKGGDPNNVVALGGHTDSVEAGPGINDDGSGIISNLVIAKALTQYSVKNAVRFLFWTAEEFGLLGSNYYVSHLNATELNKIRLYLNFDMIASPNYALMIYDGDGSAFNQSGPAGSAQIEKLFEDYYDSIDLPHIPTQFDGRSDYEAFILNGIPSGGLFTGAEGIMSEENASRWGGQAGVAYDANYHAAGDNMTNLNHEAFLINSKATAFAVATYANDLSSIPKRNTTSSLHRRARTMRPFGKRAPKTHAHVSGSGCWHSQVEA
B3: TRI032, PepN 2 (aminopeptidase type 2) from Myceliophthora thermophila ATCC 42464 (protein)
chain: GGHGGSSGLGCDSQRPLVSSEKLQSLIKKEDLLAGSQELQDIATAHGGHRAFGSSGHNATVDFLYYTLKALDYYNVTKQPFKEIFSSGTGSLTVDGEDIEAETLTYTPSGSATDKPVVVVANVGCDAADYPAEVAGNIALIKRGTCTFSQKSVNAKAAGAVAAIIYNNAEGKLSGTLGQPFLDYAPVLGITLEAGEALLAKLAGGPVTATLQIDALVEERVTYNVIAETKEGDHSNVLVLGGHTDSVPAGPGINDDGSGTIGMLTVAKALTKFRVKNAVRFAFWSAEEYGLLGSYAYIKSINSSAAELSKIRAYLNFDMIASPNYIYGIYDGDGNAFNLTGPAGSDVIERNFENFFKRKHTPSVPTEFSGRSDYAAFIENGIPSGGLFTGAEVLKTEREAELFGGRAGVAYDVNYHQAGDTVDNLALDAFLLNTKAIADSVATYALSFDGLPRVDGKKRRWDAHRARMLKRSAGSHGHAHLHSGPCGGGASI
B4: TRI031, PepN 2 (aminopeptidase type 2) from Neosartorya fischeri NRRL 181 (protein)
chain: NGPGWDWKPPVHPKVLPQMIHLWDLMHGAQKLEDFAYAYPERNRVFGGPAHEDTVNYLYRELKKTGYYDVYKQPQVHQWTRADQALTVDGKSYVATTMTYSPSVNVTAPLAVVNNLGCVESDYPADLKGKIALVSRGECPFATKSVLSAKAGAAAALVYNNIEGSMAGTLGGPTSELGPYAPIAGISLADGQALIQMIQAGTVTANLWIDSKVENRTTYNVIAQTKGGDPNNVVALGGHTDSVEAGPGINDDGSGIISNLVVAKALTRFSVKNAVRFCFWTAEEFGLLGSSYYVNSLNATEKAKIRLYLNFDMIASPNYALMIYDGDGSAFNLTGPAGSAQIERLFEDYYKSIRKPFVPTEFNGRSDYEAFILNGIPAGGIFTGAEAIKTEEQAKLFGGQAGVALDANYHAKGDNMTNLNREAFLINSKATAFAVATYANSLDSIPSRNMSTVVKRSQLEQAKKSTPHTHTGGTGCYKDRVEQ

Experiments:
[1] = tested on: peptide TPAAAR
[2] = molecular target: T1, peptide KPGQPMY
[3] = molecular target: T2, peptide TPAAAR
[4] = molecular target: T3, peptide WHWLQLKPGQPMY

Molecule | hydrolysis of the peptide, LC-MS label free quantification [1] | hydrolysis of the peptide (X-Pro bond), LC-MS label free quantification [2] | hydrolysis of the peptide, LC-MS label free quantification [3] | hydrolysis of the peptide, LC-MS label free quantification [4]
COROLASE LAP (fungal exo-peptidase, AB Enzymes) | show no hydrolysis of TPAAAR within 12 hr | – | – | –
B1 | – | to KPGQPMY (FIG. 6) and further down to QPMY (FIG. 7) | can hydrolyze the peptide TPAAAR over time to less than half the concentration within 2 hr incubation | TRI031 and TRI035 can hydrolyze the peptide WHWLQLKPGQPMY (FIG. 5) to KPGQPMY (FIG. 6) and further down to QPMY (FIG. 7)
B2 | – | – | show no hydrolysis of TPAAAR within 12 hr | we also find that their enzyme cleaves the peptide down to QPMY (FIG. 7)
B3 | – | – | can hydrolyze the peptide TPAAAR over time to less than half the concentration within 2 hr incubation | –
B4 | – | to KPGQPMY (FIG. 6) and further down to QPMY (FIG. 7) | – | TRI031 and TRI035 can hydrolyze the peptide WHWLQLKPGQPMY (FIG. 5) to KPGQPMY (FIG. 6) and further down to QPMY (FIG. 7)

Source: patent US20180291360
